The text below walks through data of publication PMC6454087 (Frontiers in Immunology, 2019).

B1: mouse WT sNASP (somatic nuclear autoantigenic sperm protein), B6 allele (natural protein)
chain: MATESTAAAAIAAELVSADKIEDAPAPSTSADKMESLDVDSEAKKLLGLGQKHLVMGDIPAAVNAFQEAASLLGKKYGETANECGEAFFFYGKSLLELARMENGVLGNALEGVHVEEEEGEKTEDESLVENNDNVDETEGSEEEDRENDKAEETPNESVLEKKSLQENEEEEIGNLELAWDMLDLAKIIFKRQETKEAQLYAAQAHLKLGEVSVESENYIQAVEEFQACLSLQEQYLEAHDRLLAETHYQLGLAYGYNSQYDEAVAQFGKSIDVIEKRMAVLHEQMKEAEGSFTEYEKEIEELKELLPEIREKIEDAKESQRSGNVAELALKATLVESSTSGFTPSGAGASVSMIASRKPTDGASSSNCVTDISHLVRKKRKPEEESPRKDDAKKAKQEPEVNGGSGDAVSSGKEVSENMEAEAENQAESQTAEGTVESAATIKSTAC
modifications: Somatic isoform of 448 aa = 773-aa tNASP entry lacking 325 residues (internal testis-specific exon). Junction 137/463 set by homology to human sNASP and the printed length, not printed in the paper. …

The target of assay [1] is mouse histone H4 (mouse, UniProt P62806 1-103). In words: BLI; Octet K2, 30 C; sNASP WT or variant immobilised on aminopropylsilane (APS) biosensors, histones in assay buffer at various concentrations (62.5 to 1,000 nM shown for H4), association 240 s; n = 4. To be noted: both partners purified. On the technique in general: In BLI a coated tip is dipped into the sample, and binding shifts an interference pattern.

Assay [2] addresses B1. The description is as above. To be noted: both partners purified.

For orientation: Kd means the free concentration of one partner at which half of the binding sites on the other are occupied at equilibrium, for simple one-to-one binding. Higher therefore signals a looser complex. The term kon denotes the second-order rate constant of association. A lower kon goes with slower complex formation. In assay [1], B1 came in with a dissociation constant Kd of 40.7 nM and an on-rate constant (kon) of 1990 M⁻¹ s⁻¹.

B2: mouse histone H1a (natural protein, UniProt P43275 1-213, looked up)
chain: MSETAPVAQAASTATEKPAAAKKTKKPAKAAAPRKKPAGPSVSELIVQAVSSSKERSGVSLAALKKSLAAAGYDVEKNNSRIKLGLKSLVNKGTLVQTKGTGAAGSFKLNKKAESKAITTKVSVKAKASGAAKKPKKTAGAAAKKTVKTPKKPKKPAVSKKTSKSPKKPKVVKAKKVAKSPAKAKAVKPKASKAKVTKPKTPAKPKKAAPKKK
notes: mouse histone H1a (H1.1); source: bought: Lifespan Biosciences
As for B2, in assay [2], the Kd turned out to be 387 nM and the kon is 10100 M⁻¹ s⁻¹.
